From doi:10.1101/2021.10.20.465058 (bioRxiv, 2021)

What was measured:
native gel or EMSA = target: the molecule itself; experiment: native gel or EMSA
[1] = target: the molecule itself; experiment: single-particle cryo-EM, 2D class averages only
cryo-EM structure [2] = target: the molecule itself; experiment: cryo-EM structure
cryo-EM structure [3] = target: the molecule itself; experiment: cryo-EM structure; remark: listed apart in the source

B1: PerM, AI-2 exporter from E. coli (natural protein, Escherichia coli K-12, UniProt P0AFI9 1-353, looked up)
chain: MLEMLMQWYRRRFSDPEAIALLVILVAGFGIIFFFSGLLAPLLVAIVLAYLLEWPTVRLQSIGCSRRWATSIVLVVFVGILLLMAFVVLPIAWQQGIYLIRDMPGMLNKLSDFAATLPRRYPALMDAGIIDAMAENMRSRMLTMGDSVVKISLASLVGLLTIAVYLVLVPLMVFFLLKDKEQMLNAVRRVLPRNRGLAGQVWKEMNQQITNYIRGKVLEMIVVGIATWLGFLLFGLNYSLLLAVLVGFSVLIPYIGAFVVTIPVVGVALFQFGAGTEFWSCFAVYLIIQALDGNLLVPVLFSEAVNLHPLVIILSVVIFGGLWGFWGVFFAIPLATLIKAVIHAWPDGQIAQE
Native gel or EMSA
  stoichiometry N: 2

B2: YhhT, AI-2 exporter from E. coli (natural protein, Escherichia coli K-12, UniProt P0AGM0 1-349, looked up)
chain: METPQPDKTGMHILLKLASLVVILAGIHAAADIIVQLLLALFFAIVLNPLVTWFIRRGVQRPVAITIVVVVMLIALTALVGVLAASFNEFISMLPKFNKELTRKLFKLQEMLPFLNLHMSPERMLQRMDSEKVVTFTTALMTGLSGAMASVLLLVMTVVFMLFEVRHVPYKMRFALNNPQIHIAGLHRALKGVSHYLALKTLLSLWTGVIVWLGLELMGVQFALMWAVLAFLLNYVPNIGAVISAVPPMIQVLLFNGVYECILVGALFLVVHMVIGNILEPRMMGHRLGMSTMVVFLSLLIWGWLLGPVGMLLSVPLTSVCKIWMETTKGGSKLAILLGPGRPKSRLPG
[1]
  stoichiometry N: 5

B3: YdiK, AI-2 exporter from E. coli (natural protein, Escherichia coli K-12, UniProt P0AFS7 1-370, looked up)
chain: MVNVRQPRDVAQILLSVLFLAIMIVACLWIVQPFILGFAWAGTVVIATWPVLLRLQKIMFGRRSLAVLVMTLLLVMVFIIPIALLVNSIVDGSGPLIKAISSGDMTLPDLAWLNTIPVIGAKLYAGWHNLLDMGGTAIMAKVRPYIGTTTTWFVGQAAHIGRFMVHCALMLLFSALLYWRGEQVAQGIRHFATRLAGVRGDAAVLLAAQAIRAVALGVVVTALVQAVLGGIGLAVSGVPYATLLTVLMILSCLVQLGPLPVLIPAIIWLYWTGDTTWGTVLLVWSGVVGTLDNVIRPMLIRMGADLPLILILSGVIGGLIAFGMIGLFIGPVLLAVSWRLFAAWVEEVPPPTDQPEEILEELGEIEKPNK
cryo-EM structure [2]
  stoichiometry N: 5

B4: TqsA (transporter of quorum-sensing signal AI-2) from E. coli (natural protein, Escherichia coli K-12, UniProt P0AFS5 1-344, looked up)
chain: MAKPIITLNGLKIVIMLGMLVIILCGIRFAAEIIVPFILALFIAVILNPLVQHMVRWRVPRVLAVSILMTIIVMAMVLLLAYLGSALNELTRTLPQYRNSIMTPLQALEPLLQRVGIDVSVDQLAHYIDPNAAMTLLTNLLTQLSNAMSSIFLLLLTVLFMLLEVPQLPGKFQQMMARPVEGMAAIQRAIDSVSHYLVLKTAISIITGLVAWAMLAALDVRFAFVWGLLAFALNYIPNIGSVLAAIPPIAQVLVFNGFYEALLVLAGYLLINLVFGNILEPRIMGRGLGLSTLVVFLSLIFWGWLLGPVGMLLSVPLTIIVKIALEQTAGGQSIAVLLSDLNKE
cryo-EM structure [2]
  stoichiometry N: 5

B5: Aq_740, AI-2 exporter from Aquifex aeolicus (natural protein, UniProt O66948 1-353, looked up)
chain: MNKLSLFVYLFFFLSFLFLFLYLLQPFFNPIVWAIVFGIVLYPLYGFIKRKLKSENLAAFLVIFIVLVAIVIPFTIFAVITAQQIIVFSIKVVNFVQTHSVNDLINSLKEIPFLKEKRESLEPLLNYLQSEEFRRALINALNSILTFVGDRLRSYVYTAGTSLFHVFVFLLTLFFILRDGEKVLKEIINSIPMKREDLEEILKTIYRTVLAVIYGTVGTAVAQSIMGFIGYSLAGVEFALIWALITFFAAFVPPFGAAFVWVPMDIYLFTTKGIKEGLILLFFGTFLISTMDNIVRPLVMKQGIKLPYVALFFSTIGGLIKFGFIGVFLGPIILSTMLASVKIYRRRVIHSGI
cryo-EM structure [3]
  stoichiometry N: 5
